This experiment deals with T1, FXIS557A catalytic domain (catalytically inactive catalytic domain of human FXI, Ile370 to Ala606 of SEQ ID … (human)).
T1 construct: The range 20-264 is worked out from 19 signal residues + 237 domain residues + 8 His; also called FXIS557A catalytic domain decoy; decoy
Briefly: SPR (Biacore T200), biotinylated FXIS557A catalytic domain captured on CAP chip, DEF Fab injected, 37 C, 1:1 Langmuir fit. How it is done:
Binding affinity was measured using a Biacore T200 Instrument (GE Healthcare). Recombinant FXIS557A catalytic domain was biotin labeled via primary amines and captured on a Biacore CAP chip (GE Healthcare). Experiments were performed at 37° C. using a 30 μ/min flow rate in 10 mM HEPES (pH 7.4), 150 mM NaCI and 0.005% v/v Surfactant P20 (HBSp) buffer (GE Healthcare). After each DEF Fab injection, the chip surface was regenerated with a solution of 6 M guanidine-HCl and 0.25 M NaOH, coated with the CAP reagent and new FXIS557A was captured. All data was analyzed using the Biacore T200 Evaluation software and background and buffer subtracted data fit to a 1:1 Langmuir binding model. Results were reported as the mean of two experiments.
Background: Surface plasmon resonance follows binding to a sensor surface in real time, without labels.

The record followed here is patent US20180216094A1 (University of California, published 2018).

Usually koff stands for a measure of how fast the partners let go of each other. Lower therefore signals slow dissociation. Broadly, the kon is the second-order rate constant of association.

B1: DEF Fab (Fab, V domains shown)
VH: EVQLVQSGAEVKKPGASVKVSCKASGYTFTGYYMHWVRQAPGQGLEWMGWIDPDEGDTNYAQKFQGRVTMTRDTSISTAYMELSRLRSDDTAVYYCARLASGFRDYWGQGTLVTVSS
VL: DIVMTKSPSSLSASVGDRVTITCRASQGIRNDLGWYQQKPGKAPKRLIYAASSLQSGVPSRFSGSGSGTEFTLTISSLQPEDFATYYCLQHDIYASTFGPGTKVDIKR
notes: Fab form of antibody DEF
The molecule B1 came in with a koff of 0.000445 s⁻¹ and a kon of 2.95e+06 M⁻¹ s⁻¹.
